This is an account of results in patent publication US20250320312A1 (OXITOPE PHARMA B V, published 2025).

In assay [1] the target is BSA (UniProt P02769). Put plainly: scFv ELISA.
Assay [2] has as its target T1, Peptide 1: Biotin-AGGGGSGGGGSGGGGSAAA-[Tyr(PC)]-acid (N-terminal biotin; C-terminal Tyr(PC), PC = p-diazophenyl phosphoryl choline; C-terminal acid).
T1 construct: Synthetic phosphocholine-conjugated peptide
T1 peptide: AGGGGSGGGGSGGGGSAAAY
In words: scFv ELISA. The method in brief: (§1)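 Bound scFv was read as OD450 after HRP–anti-V5 detection, TMB development and HCl stop. PPE with BSA was incubated 1 h at RT on BSA-blocked wells coated overnight at 4° C. with peptide, or on streptavidin wells loaded 1 h with biotinylated PC-peptides at 1 μg/mL.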
For orientation: ELISA stands for enzyme-linked immunosorbent assay.

The target of assay [3] is T2, Peptide 8: Biotin-AEAAAKEAAAKEAAAKEAAAKAAA-Tyr-acid (N-terminal biotin; C-terminal acid).
T2 construct: Control peptide without PC
T2 peptide: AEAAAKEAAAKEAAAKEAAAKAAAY
Put plainly: scFv ELISA. The method in brief: as §1

The target of assay [4] is T3, Peptide 5: Biotin-AEAAAKEAAAKEAAAKEAAAKAAA-[Tyr(PC)]-acid (N-terminal biotin; C-terminal Tyr(PC), PC = p-diazophenyl phosphoryl choline; C-terminal acid).
T3 construct: Synthetic phosphocholine-conjugated peptide
T3 peptide: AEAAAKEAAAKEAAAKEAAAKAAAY
In words: scFv ELISA. The method in brief:
as §1

Assay [5] deals with T4, Peptide 4: Biotin-AGGGGSGGGGSGGGGSAAA-Tyr-acid (N-terminal biotin; C-terminal acid).
T4 construct: Control peptide without PC
T4 peptide: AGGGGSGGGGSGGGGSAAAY
Put plainly: scFv ELISA. The method in brief: as §1

For assay [6], the target named is T5, Peptide 4 (N-terminal biotin; C-terminal Tyr without PC conjugation; C-terminal acid).
T5 construct: Unconjugated control peptide
T5 peptide: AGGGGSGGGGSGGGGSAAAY
In words: scFv ELISA, OD450. Here is the method: (§2) For ELISA analysis of scFv binding, 96-well polystyrene plates were coated with Peptide 1, 4, 5, 8 or 100 μL BSA (10 μg/mL) in PBS at 4° C. overnight. Plates were washed three times with PBS-Tween and blocked with 100 μL 1% BSA-TBS for 1 hour at room temperature. 96-well streptavidin coated plates were coated with 100 μL biotinylated PC-peptides (1 μg/mL) in PBS for 1 hour at room temperature.
(§3) All plates were washed three times with PBS-Tween before 40 μL aliquots of PPE were added to assay plates along with 50 μL 10% BSA, and plates were incubated for 1 hour at room temperature. After washing, […] HRP conjugated anti-V5 in 5% BSA was added, and plates were incubated at room temperature for 30 mins. Plates were washed and 100 μL TMB substrate was added. Color was left to develop at room temperature before the reaction was stopped with 100 μL 1N HCl. The amount of scFv bound to each well was quantitated from absorbance measurement at 450 nm (OD450).

Assay [7] deals with T6, Peptide 8 (N-terminal biotin; C-terminal Tyr without PC conjugation; C-terminal acid).
T6 construct: Unconjugated control peptide
T6 peptide: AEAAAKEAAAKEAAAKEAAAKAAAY
Put plainly: scFv ELISA, OD450. Here is the method:
as §2, §3

BSA, sequence (P02769 25-607 limits assumed): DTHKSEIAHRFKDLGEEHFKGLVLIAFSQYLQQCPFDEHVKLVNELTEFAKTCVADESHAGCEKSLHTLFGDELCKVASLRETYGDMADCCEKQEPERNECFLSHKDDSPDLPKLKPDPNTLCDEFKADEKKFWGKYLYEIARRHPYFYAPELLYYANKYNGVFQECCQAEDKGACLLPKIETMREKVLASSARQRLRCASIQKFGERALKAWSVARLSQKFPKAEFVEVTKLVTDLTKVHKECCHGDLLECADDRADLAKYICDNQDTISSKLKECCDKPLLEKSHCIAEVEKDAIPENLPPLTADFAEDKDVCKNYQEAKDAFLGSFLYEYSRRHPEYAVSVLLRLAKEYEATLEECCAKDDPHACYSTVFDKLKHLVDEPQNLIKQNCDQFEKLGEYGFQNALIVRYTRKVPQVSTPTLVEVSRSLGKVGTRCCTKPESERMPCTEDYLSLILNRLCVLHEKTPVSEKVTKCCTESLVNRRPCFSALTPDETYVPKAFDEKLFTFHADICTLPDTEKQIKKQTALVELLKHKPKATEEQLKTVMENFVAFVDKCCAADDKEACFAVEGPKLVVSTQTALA

B1: PcOxP_DB02_G03 (scFv, V domains shown)
VH: EVQLLESGGGLVQPGGSLRLSCAASGFGFSDFYMEWVRQAPGKGLEWVAASRNKANDYTTEYADSVKGRFTISRDNSKNTLYLQMNSLRAEDTAVYYCARDYYGSSYWYHDVWGQGTLVTVSS
VL: DIVMTQSPDSLAVSLGERATINCTASEDLYSSKHKVHYLAWYQQKPGQPPKLLIYGTSNRYIGVPDRFSGSGSGTDFTLTISSLQAEDVAVYYCAQYYSYPLTFGGGTKVEIK
notes: scFv in periplasmic extract
Turning to B1, the OD450 stood at 0.06 OD450 in assay [1]; 0.06 OD450 in assay [2]; 0.05 OD450 in assay [3]; 0.1 OD450 in assay [4]; 0.05 OD450 in assay [5].

B2: PcOxP_DB02_E06 (scFv) (scFv, V domains shown)
VH: EVQLLESGGGLVQPGGSLRLSCAASGFTFSDEYMEWVRQAPGKGLEWVAASRGKGNSYTTEYADSVKGRFTISRDNSKNTLYLQMNSLRAEDTAVYYCARDYYGSSYWYFDVWGQGTLVTVSS
VL: DIQMTQSPSSLSASVGDRVTITCTASESLYSSKHKVHYLAWYQQKPGKAPKLLIYGASNRYIGVPSRFSGSGSGTDFTLTISSLQPEDFATYYCAQFYSYPLTFGGGTKVEIK
notes: scFv in periplasmic extract
As to B2, the binding result in assay [6] and in assay [7] was “no binding (tested: avg neg. control OD450 + 3x SD)” throughout.
